Test results published in patent JP2007535905A.

Target: SM5−1抗原(BIAcore測定に用いた形は記載なし)
Assay: BIAcore (Pharmacia), kinetic analysis after Karlsson et al.

Kd: 9.31 nM
B1: 抗ヒトSM5−1ヒト化抗体(ReSM5−1) (antibody, V domains shown)
VH: QVQLVQSGGGVVQPGRSLRLSCKASGYTFTSYVMHWVRQAPGKGLEWIGYIVPYNDGTKYNEKFKGRFTISSDKSKSTAFLQMDSLRPEDTAVYYCARGSRYDWYLDYWGQGTPVTVSS
VL: NIMMTQSPSSLSASVGDRVTITCKSSQSVLYSSNQKNYLAWYQQTPGKAPKLLIYWASTRESGVPSRFSGSGSGTDYTFTISSLQPEDIATYYCHQYFSSYTFGQGTKLQITR
